T1: hTEM8(ED)-Fc fusion protein (human; mouse, UniProt Q9H6X2 33-321)
T1 construct: also called TEM8-Fc; human TEM8-Fc
T1 sequence: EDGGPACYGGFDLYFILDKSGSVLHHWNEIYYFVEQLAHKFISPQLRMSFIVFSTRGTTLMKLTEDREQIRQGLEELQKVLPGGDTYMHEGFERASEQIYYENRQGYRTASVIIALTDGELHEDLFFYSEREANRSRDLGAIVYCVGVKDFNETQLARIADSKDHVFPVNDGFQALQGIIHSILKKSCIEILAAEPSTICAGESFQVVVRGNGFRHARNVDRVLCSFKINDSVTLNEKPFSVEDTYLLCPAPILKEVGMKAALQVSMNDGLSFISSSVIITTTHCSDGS

B1: L1 Fab (Fab, V domains shown)
VH: QVQLVESGGGLVQPGGSLRLSCAASGFTFNSYAMSWVRQAPGKGLEWVSLISSGSSTYYADSVKGRFTISRDNSKNTLYLQMNSLRAEDTAVYYCARAGFKFDNWGQGTLVTVSS
VL: DIELTQPPSVSVAPGQTARISCSGDSIPNYSVSWYQQKPGQAPVLVIYADSNRPSGIPERFSGSNSGNTATLTISGTQAEDEADYYCQSYDNTSPDLVFGGGTKLTVLG
B2: L5-mIgG2a (antibody, V domains shown)
VH: QVQLVESGGGLVQPGGSLRLSCAASGFTFNSYGLSWVRQAPGKGLEWVSNISSNGSYTYYADSVKGRFTISRDNSKNTLYLQMNSLRAEDTAVYYCARAGYGLFDVWGQGTLVTVSS
VL: DIELTQPPSVSVAPGQTARISCSGDKLREYYVHWYQQKPGQAPVLVIYGDNKRPSGIPERFSGSNSGNTATLTISGTQAEDEADYYCSSWAGSRSGTVFGGGTKLTVL
notes: also called L5 full IgG

Experiments:
[1] = molecular target: T2, mouse TEM8 on 293 cells (293/mTEM8) (mouse, UniProt Q9CZ52 31-562); test: flow cytometry on 293/mTEM8 cells (FIG. 8C)
T2 construct: whole, on cells

[2] = molecular target: T1, hTEM8(ED)-Fc fusion protein; test: ELISA on biotinylated human TEM8-Fc captured on neutravidin
[3] = molecular target: T3, flag-tagged human TEM8 on 293 cells (293/Flag-hTEM8) (human, UniProt Q9H6X2 33-564); test: immunofluorescence and flow cytometry on 293/Flag-hTEM8 cells
T3 construct: also called 293/Flag-huTEM8; 293/hFlag-TEM8

[4] = molecular target: T3, flag-tagged human TEM8 on 293 cells …; test: flow cytometry titration on 293/Flag-hTEM8 cells, FITC anti-mouse secondary (FIG. 9B)

binding result [1] | binding result [2] | binding result [3] | EC50 [4] | Binder
binds | binds | binds |  | B1
 |  |  | 2.8 nM | B2

From patent publication US20140134179A1 (Novartis, published 2014)
